Measurements reported in the supplement of paper PMC12667976.
± gives the standard error.

B1: library; numbered along this chain (parent)
chain: MATDAALRRLLRLHRTEIAVAVDSAFPLLHALADHDVVPEDKFQETLHLKEKEGCPQAFHALLSWLLTQDSTAILDFWRVLFKDYNLERYGRLQPILDSFPKDVDLSQPRKGRKPPAVPKALVPPPRLPTKRKASEEARAAAPAALTPRGTASPGSQLKAKPPKKPESSAEQQRLPLGNGIQTMSASVQRAVAMSSGDVPGARGAVEGILIQQVFESGGSKKCIQVGGEFYTPSKFEDSGSGKNKARSSSGPKPLVRAKGAQGAAPGGGEARLGQQGSVPAPLALPSDPQLHQKNEDECAVCRDGGELICCDGCPRAFHLACLSPPLREIPSGTWRCSSCLQATVQEVQPRAEEPRPQEPPVETPLPPGLRSAGEEVRGPPGEPLAGMDTTLVYKHLPAPPSAAPLPGLDSSALHPLLCVGPEGQQNLAPGARCGVCGDGTDVLRCTHCAAAFHWRCHFPAGTSRPGTGLRCRSCSGDVTPAPVEGVLAPSPARLAPGPAKDDTASHEPALHRDDLESLLSEHTFDGILQWAIQSMARPAAPFPS

Variants of: B1
Experiment: AIRE transcriptional activation functional score (insulin promoter-GFP; nonsense median 0, synonymous median 1) (normalised score); higher = higher AIRE activity (more reporter activation)
Details: with insulin promoter-GFP reporter in HEK293
Experimental: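 Deep mutational scan of full-length human AIRE (codon-optimized cDNA, DT-POPCode NNN libraries over three regions) integrated at a Bxb1 landing pad in HEK293 cells carrying an insulin core promoter-GFP reporter at a Flp-In site. Cells were sorted for the top 10% GFP about 14 days after transfection. Variant frequency log-ratios (select vs non-select, TileSeq) were rescaled so that the nonsense median is 0 and the synonymous median is 1, then averaged over biological replicates.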
L97W was tested, and the “AIRE transcriptional activation functional score” value was -1.69 ± 0.58. R190C was tested, and the “AIRE transcriptional activation functional score” value was 0.414 ± 0.13. For A144G, the “AIRE transcriptional activation functional score” value was 1.31 ± 0.24. In the case of A144D, the “AIRE transcriptional activation functional score” value is reported as 0.251 ± 0.65. For N86M, the “AIRE transcriptional activation functional score” value was 1.34 ± 0.48. L520F was tested, and the “AIRE transcriptional activation functional score” value was 0.794 ± 0.35. For A258T, the “AIRE transcriptional activation functional score” value was 0.978 ± 0.33. K221E was tested, and the “AIRE transcriptional activation functional score” value was 1.1 ± 0.34. In the case of E237I, the “AIRE transcriptional activation functional score” value is reported as 0.885 ± 0.075. For D288E, the “AIRE transcriptional activation functional score” value was 0.565 ± 0.14. L87T was tested, and the “AIRE transcriptional activation functional score” value was 0.00113 ± 0.16. L177H was tested, and the “AIRE transcriptional activation functional score” value was 1.01 ± 0.47. In the case of T447N, the “AIRE transcriptional activation functional score” value is reported as 1.26 ± 0.23. G260A was tested, and the “AIRE transcriptional activation functional score” value was 0.8 ± 0.44. In the case of G260L, the “AIRE transcriptional activation functional score” value is reported as 1.29 ± 0.19. For G260H, the “AIRE transcriptional activation functional score” value was 1.19 ± 0.08. Q262H was tested, and the “AIRE transcriptional activation functional score” value was 0.819 ± 0.2. For D478A, the “AIRE transcriptional activation functional score” value was 0.808 ± 0.31. L519F was tested, and the “AIRE transcriptional activation functional score” value was 0.808 ± 0.029. With L519R the “AIRE transcriptional activation functional score” value was 0.267 ± 0.12. In the case of A505M, the “AIRE transcriptional activation functional score” value is reported as 0.663 ± 0.15. R538A was tested, and the “AIRE transcriptional activation functional score” value was 0.19 ± 0.045. In the case of P331M, the “AIRE transcriptional activation functional score” value is reported as 1.35 ± 0.1. P266G was tested, and the “AIRE transcriptional activation functional score” value was 0.877 ± 0.27. With A193G the “AIRE transcriptional activation functional score” value was 0.791 ± 0.26. In the case of D297R, the “AIRE transcriptional activation functional score” value is reported as 0.34 ± 0.4. For Y90T, the “AIRE transcriptional activation functional score” value was 0.376 ± 0.48. In the case of L470V, the “AIRE transcriptional activation functional score” value is reported as 0.842 ± 0.23. With S234V the “AIRE transcriptional activation functional score” value was 1.19 ± 0.26. In the case of D442Y, the “AIRE transcriptional activation functional score” value is reported as 0.265 ± 0.11. With G240A the “AIRE transcriptional activation functional score” value was 0.723 ± 0.28. In the case of N427F, the “AIRE transcriptional activation functional score” value is reported as 1.42 ± 0.17. R113L was tested, and the “AIRE transcriptional activation functional score” value was 0.951 ± 0.3. G197W was tested, and the “AIRE transcriptional activation functional score” value was 0.323 ± 0.063. In the case of R149N, the “AIRE transcriptional activation functional score” value is reported as 0.726 ± 0.25. For S64V, the “AIRE transcriptional activation functional score” value was -0.0585 ± 0.4. A138T was tested, and the “AIRE transcriptional activation functional score” value was 0.99 ± 0.51. For S506E, the “AIRE transcriptional activation functional score” value was 0.655 ± 0.93. With P490G the “AIRE transcriptional activation functional score” value was 1.51 ± 0.078. With P490V the “AIRE transcriptional activation functional score” value was 0.606 ± 0.23. With P490L the “AIRE transcriptional activation functional score” value was 1.12 ± 0.27. P490E was tested, and the “AIRE transcriptional activation functional score” value was 0.916 ± 0.086. For F100E, the “AIRE transcriptional activation functional score” value was -0.0797 ± 0.56. In the case of H48V, the “AIRE transcriptional activation functional score” value is reported as 1.53 ± 0.17. With T68M the “AIRE transcriptional activation functional score” value was 0.985 ± 0.062. For T68I, the “AIRE transcriptional activation functional score” value was -0.358 ± 0.46. For P361K, the “AIRE transcriptional activation functional score” value was 1.12 ± 0.16. In the case of A5E, the “AIRE transcriptional activation functional score” value is reported as 1.41 ± 0.12. T468M was tested, and the “AIRE transcriptional activation functional score” value was 1.12 ± 0.053. With K243E the “AIRE transcriptional activation functional score” value was 0.511 ± 0.13. With G242K the “AIRE transcriptional activation functional score” value was 0.747 ± 0.2. For L62R, the “AIRE transcriptional activation functional score” value was -0.00966 ± 0.95. In the case of A281R, the “AIRE transcriptional activation functional score” value is reported as 1.15 ± 0.39. S518C was tested, and the “AIRE transcriptional activation functional score” value was 0.672 ± 0.18. For S518Q, the “AIRE transcriptional activation functional score” value was 1.77 ± 0.11. For K235F, the “AIRE transcriptional activation functional score” value was 0.827 ± 0.3. For A160D, the “AIRE transcriptional activation functional score” value was 0.974 ± 0.075. With L511S the “AIRE transcriptional activation functional score” value was 0.682 ± 0.32. In the case of C314H, the “AIRE transcriptional activation functional score” value is reported as 0.752 ± 0.035. For C314M, the “AIRE transcriptional activation functional score” value was 1.12 ± 0.02. S248M was tested, and the “AIRE transcriptional activation functional score” value was 1.01 ± 0.041. For S248D, the “AIRE transcriptional activation functional score” value was 1.25 ± 0.58. With S187F the “AIRE transcriptional activation functional score” value was -0.0306 ± 0.083. With C223W the “AIRE transcriptional activation functional score” value was -0.0978 ± 0.045. C223S was tested, and the “AIRE transcriptional activation functional score” value was 0.477 ± 0.24. With H319G the “AIRE transcriptional activation functional score” value was 1.28 ± 0.13. With E216S the “AIRE transcriptional activation functional score” value was 1.33 ± 0.068. With E307T the “AIRE transcriptional activation functional score” value was 1.03 ± 0.16. P289C was tested, and the “AIRE transcriptional activation functional score” value was 1.08 ± 0.17. L366K was tested, and the “AIRE transcriptional activation functional score” value was 1.37 ± 0.08. P401E was tested, and the “AIRE transcriptional activation functional score” value was 1.49 ± 0.18. In the case of V377K, the “AIRE transcriptional activation functional score” value is reported as 0.952 ± 0.045. In the case of W65G, the “AIRE transcriptional activation functional score” value is reported as 0.22 ± 0.48. F453V was tested, and the “AIRE transcriptional activation functional score” value was 0.154 ± 0.15. In the case of D238Q, the “AIRE transcriptional activation functional score” value is reported as 0.948 ± 0.16. D238R was tested, and the “AIRE transcriptional activation functional score” value was 0.333 ± 0.33. With A399V the “AIRE transcriptional activation functional score” value was 0.911 ± 0.24. With I209Y the “AIRE transcriptional activation functional score” value was 0.98 ± 0.43. With S99A the “AIRE transcriptional activation functional score” value was -0.293 ± 0.049. S99F was tested, and the “AIRE transcriptional activation functional score” value was 0.636 ± 0.18. For S99Q, the “AIRE transcriptional activation functional score” value was -0.179 ± 0.092. For Q213P, the “AIRE transcriptional activation functional score” value was 0.531 ± 0.13. I74M was tested, and the “AIRE transcriptional activation functional score” value was 0.0325 ± 0.12.
